Data reported in patent publication US20210395344A1.

Key:
[1] = target: SARS-CoV-2 Spike Glycoprotein S1 (subunit 1) (SARS-CoV-2) (UniProt P0DTC2); test: epitope binning; competitor Acro mAb
[2] = target: SARS-CoV-2 Spike Glycoprotein S1 (subunit 1) (SARS-CoV-2) (UniProt P0DTC2); test: epitope binning; competitor 2-2
[3] = target: SARS-CoV-2 Spike Glycoprotein S1 (subunit 1) (SARS-CoV-2) (UniProt P0DTC2); test: epitope binning; competitor 2-8
[4] = target: SARS-CoV-2 Spike Glycoprotein S1 (subunit 1) (SARS-CoV-2) (UniProt P0DTC2); test: epitope binning; competitor 1-35
[5] = target: SARS-CoV-2 Spike Glycoprotein S1 (subunit 1) (SARS-CoV-2) (UniProt P0DTC2); test: epitope binning; competitor 2-11
[6] = target: SARS-CoV-2 Spike Glycoprotein S1 (subunit 1) (SARS-CoV-2) (UniProt P0DTC2); test: epitope binning; competitor 2-5
[7] = target: SARS-CoV-2 Spike Glycoprotein S1 (subunit 1) (SARS-CoV-2) (UniProt P0DTC2); test: epitope binning; competitor 2-6
[8] = target: SARS-CoV-2 Spike Glycoprotein S1 (subunit 1) (SARS-CoV-2) (UniProt P0DTC2); test: epitope binning; competitor Abcam CR3022
[9] = target: SARS-CoV-2 Spike Glycoprotein S1 (subunit 1) (SARS-CoV-2) (UniProt P0DTC2); test: epitope binning; competitor 1-16
[10] = target: SARS-CoV-2 Spike Glycoprotein S1 (subunit 1) (SARS-CoV-2) (UniProt P0DTC2); test: epitope binning; competitor 1-32

With Abcam CR3022 (antibody) the epitope binning score [1] was 2, the epitope binning score [2] was 0 and the epitope binning score [3] was 0. For the same substance, the epitope binning score [4] was 2, the epitope binning score [5] was 1 and the epitope binning score [6] was 0. It also gave an epitope binning score [7] of 2, an epitope binning score [8] of 0 and an epitope binning score [9] of 2. For the same substance, the epitope binning score [10] was 1.
